The values below come from article PMC3042951 (The journal of physical chemistry. B, 2010).

The data set concerns the molecule itself. Kind of data set: cross-linking.

B1: native human LysRS (70–584) T285C (enzyme)
chain: not shown
Turning to B1, the stoichiometry N (commonly the number of molecules, sites or subunits per partner or assembly) came to 2.
